Patent US20230279047A1
pKd: −log10 of the molar value.

Legend:
[1] = biological target: human polyclonal IgG (Gammanorm) (human); assay: DBC column, 6 min residence; ligand 7.0 mg/ml on agarose beads
[2] = biological target: human polyclonal IgG (Gammanorm) (human); assay: DBC column, 6 min residence; ligand […] on agarose beads
[3] = biological target: human polyclonal IgG (Gammanorm) (human); assay: DBC column, 6 min residence; ligand 10.8 mg/ml on agarose beads
[4] = biological target: human polyclonal IgG (Gammanorm) (human); assay: DBC column, 6 min residence; ligand […] on agarose beads; remark: listed apart in the source
[5] = biological target: human polyclonal IgG (Gammanorm) (human); assay: DBC column, 6 min residence; ligand 7.2 mg/ml on agarose beads
IgG1 monoclonal antibody = assay: SPR (Biacore), ligand amine-coupled on CM5 chip, IgG1 mAb as probe
[6] = biological target: human polyclonal IgG (Gammanorm) (human); assay: DBC column, 6 min residence; ligand 9.7 mg/ml on agarose beads
[7] = biological target: human polyclonal IgG (Gammanorm) (human); assay: as above; remark: listed apart in the source

Which Initial IgG capacity Qb10 [1] does the source give for “Zvar(Q9A,N11E,N28A,N43A)4 (designed binder)” here?
Its Initial IgG capacity Qb10 is 49.1 mg/mL.

What about the Initial IgG capacity Qb10 [2] of the same substance?
The Initial IgG capacity Qb10 was 50 mg/mL.

Which Initial IgG capacity Qb10 [3] does the source give for “Zvar(Q9A,N11K,H18K,D37E,A42R)4 (designed binder)” here?
The Initial IgG capacity Qb10 was 56.9 mg/mL.

For “Zvar(Q9A,N11E,Q40V,A42K,N43A,L44I)4 (designed binder)”, which Initial IgG capacity Qb10 [4] is on record?
Its Initial IgG capacity Qb10 is 60.3 mg/mL.

And the Initial IgG capacity Qb10 [2]?
Its Initial IgG capacity Qb10 is 56.3 mg/mL.

And the Initial IgG capacity Qb10 [5]?
The Initial IgG capacity Qb10 was 49 mg/mL.

How did the pKd (IgG1 monoclonal antibody) turn out when “Zvar(Q9A,N11E,Q40V,A42K,N43A,L44I)1 (designed binder)” was run?
The pKd was 8.97.

What about the koff (IgG1 monoclonal antibody) of the same substance?
Its koff is 0.000437 s⁻¹.

And the kon (IgG1 monoclonal antibody)?
The kon was 410000 M⁻¹ s⁻¹.

What does the source list for “Zvar(N11K,H18K,S33K,D37E,A42R,N43A,L44I,K50R,L51Y)4 (designed binder)”?
Initial IgG capacity Qb10 [6]: 62.1 mg/mL; Initial IgG capacity Qb10 [7]: 56.3 mg/mL
